From patent publication US20200079833A1 (AstraZeneca / MedImmune, published 2020)
Starred links: 1 amine or outer side, 2 acyl side, 3 side chain; linkers in the order of their positions; H or OH if unused. Non-standard residues stand in square brackets, D forms with d. Groups on a side chain read outwards from the residue. No end group written: not given here. *: point of attachment. γGlu = O=C(O)[C@H](CCC(=O)[*:2])N[*:1]; Palmitoyl = CCCCCCCCCCCCCCCC(=O)*; αMeF = C[C@](N)(Cc1ccccc1)C(=O)O; αMeK = C[C@](N)(CCCCN)C(=O)O; αMeS = C[C@](N)(CO)C(=O)O; Aib = CC(C)(N)C(=O)O

Legend:
Experiment in all cases: cell-based or functional assay
[1] = molecular target: GLP-1 receptor (human, UniProt P43220 24-463)
[2] = molecular target: glucagon receptor (human, UniProt P47871 26-477)
[3] = molecular target: T1, glucose-dependent insulinotropic peptide (gastric inhibitory polypeptide) receptor (human, UniProt P48546 22-466)
T1 sequence (looked up): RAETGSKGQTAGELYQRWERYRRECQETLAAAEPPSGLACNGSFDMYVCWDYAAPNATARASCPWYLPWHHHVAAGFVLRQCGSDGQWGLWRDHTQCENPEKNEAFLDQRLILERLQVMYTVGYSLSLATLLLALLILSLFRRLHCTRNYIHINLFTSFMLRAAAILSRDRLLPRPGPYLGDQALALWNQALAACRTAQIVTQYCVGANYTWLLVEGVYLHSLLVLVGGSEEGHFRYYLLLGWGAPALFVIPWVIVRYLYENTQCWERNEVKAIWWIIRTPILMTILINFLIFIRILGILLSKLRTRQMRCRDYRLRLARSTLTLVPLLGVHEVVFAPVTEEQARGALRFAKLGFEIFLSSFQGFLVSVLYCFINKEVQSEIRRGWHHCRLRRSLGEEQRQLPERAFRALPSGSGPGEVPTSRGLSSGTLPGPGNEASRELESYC

Chain of glucagon receptor (P47871 26-477): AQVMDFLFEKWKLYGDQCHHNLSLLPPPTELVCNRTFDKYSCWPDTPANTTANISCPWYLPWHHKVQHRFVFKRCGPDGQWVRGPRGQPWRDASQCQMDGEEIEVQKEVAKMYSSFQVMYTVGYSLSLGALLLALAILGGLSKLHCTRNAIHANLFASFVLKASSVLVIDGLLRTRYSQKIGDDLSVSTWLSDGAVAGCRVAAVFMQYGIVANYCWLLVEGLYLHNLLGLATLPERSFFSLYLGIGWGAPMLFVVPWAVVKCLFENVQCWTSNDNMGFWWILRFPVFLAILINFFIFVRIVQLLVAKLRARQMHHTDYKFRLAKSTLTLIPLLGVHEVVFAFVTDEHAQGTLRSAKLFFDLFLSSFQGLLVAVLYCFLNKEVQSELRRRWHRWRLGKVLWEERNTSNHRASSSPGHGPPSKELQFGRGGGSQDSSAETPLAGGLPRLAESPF

Binder | Primary assay EC50 (cAMP), Mean pM GLP-1R [1] [pM] | Primary assay EC50 (cAMP), n1 [1] [pM] | Primary assay EC50 (cAMP), n2 [1] [pM] | Primary assay EC50 (cAMP), n1 [2] [nM] | Primary assay EC50 (cAMP), n2 [2] [nM] | Primary assay EC50 (cAMP), n1 [3] [nM] | Primary assay EC50 (cAMP), n2 [3] [nM]
H[Aib]EGS[αMeF]TSDV[αMeS]S[αMeF]LEGEAA[αMeK]E[αMeF]IA[αMeF]VV[αMeK]K([γGlu-Palmitoyl])G-NH2 (N-terminus assumed; SMILES CCCCCCCCCCCCCCCC(=O)N[C@@H](CCC(=O)NCCCC[C@H](NC(=O)[C@](C)(CCCCN)NC(=O)[C@@H](NC(=O)[C@@H](NC(=O)[C@](C)(Cc1ccccc1)NC(=O)[C@H](C)NC(=O)[C@@H](NC(=O)[C@](C)(Cc1ccccc1)NC(=O)[C@H](CCC(=O)O)NC(=O)[C@](C)(CCCCN)NC(=O)[C@H](C)NC(=O)[C@H](C)NC(=O)[C@H](CCC(=O)O)NC(=O)CNC(=O)[C@H](CCC(=O)O)NC(=O)[C@H](CC(C)C)NC(=O)[C@](C)(Cc1ccccc1)NC(=O)[C@H](CO)NC(=O)[C@](C)(CO)NC(=O)[C@@H](NC(=O)[C@H](CC(=O)O)NC(=O)[C@H](CO)NC(=O)[C@@H](NC(=O)[C@](C)(Cc1ccccc1)NC(=O)[C@H](CO)NC(=O)CNC(=O)[C@H](CCC(=O)O)NC(=O)C(C)(C)NC(=O)[C@@H](N)Cc1c[nH]cn1)[C@@H](C)O)C(C)C)[C@@H](C)CC)C(C)C)C(C)C)C(=O)NCC(N)=O)C(=O)O) [SEQ ID NO 71] | 7.1 | 6.2 | 8 | 27 | 27 | 27 | 27
H[Aib]EGS[αMeF]TSDVSS[αMeF]VEGEAA[αMeK]E[αMeF]IA[αMeF]VV[αMeK]GG-NH2 (N-terminus assumed; SMILES CC[C@H](C)[C@H](NC(=O)[C@](C)(Cc1ccccc1)NC(=O)[C@H](CCC(=O)O)NC(=O)[C@](C)(CCCCN)NC(=O)[C@H](C)NC(=O)[C@H](C)NC(=O)[C@H](CCC(=O)O)NC(=O)CNC(=O)[C@H](CCC(=O)O)NC(=O)[C@@H](NC(=O)[C@](C)(Cc1ccccc1)NC(=O)[C@H](CO)NC(=O)[C@H](CO)NC(=O)[C@@H](NC(=O)[C@H](CC(=O)O)NC(=O)[C@H](CO)NC(=O)[C@@H](NC(=O)[C@](C)(Cc1ccccc1)NC(=O)[C@H](CO)NC(=O)CNC(=O)[C@H](CCC(=O)O)NC(=O)C(C)(C)NC(=O)[C@@H](N)Cc1c[nH]cn1)[C@@H](C)O)C(C)C)C(C)C)C(=O)N[C@@H](C)C(=O)N[C@@](C)(Cc1ccccc1)C(=O)N[C@H](C(=O)N[C@H](C(=O)N[C@@](C)(CCCCN)C(=O)NCC(=O)NCC(N)=O)C(C)C)C(C)C) [SEQ ID NO 10] | 90 | 87 | 93 | 100 | 100 | 100 | 100
H[Aib]EGS[αMeF]TSDV[αMeS]S[αMeF]LEGEAA[αMeK]E[αMeF]IAK([γGlu-Palmitoyl])VV[αMeK]GG-NH2 (N-terminus assumed; SMILES CCCCCCCCCCCCCCCC(=O)N[C@@H](CCC(=O)NCCCC[C@H](NC(=O)[C@H](C)NC(=O)[C@@H](NC(=O)[C@](C)(Cc1ccccc1)NC(=O)[C@H](CCC(=O)O)NC(=O)[C@](C)(CCCCN)NC(=O)[C@H](C)NC(=O)[C@H](C)NC(=O)[C@H](CCC(=O)O)NC(=O)CNC(=O)[C@H](CCC(=O)O)NC(=O)[C@H](CC(C)C)NC(=O)[C@](C)(Cc1ccccc1)NC(=O)[C@H](CO)NC(=O)[C@](C)(CO)NC(=O)[C@@H](NC(=O)[C@H](CC(=O)O)NC(=O)[C@H](CO)NC(=O)[C@@H](NC(=O)[C@](C)(Cc1ccccc1)NC(=O)[C@H](CO)NC(=O)CNC(=O)[C@H](CCC(=O)O)NC(=O)C(C)(C)NC(=O)[C@@H](N)Cc1c[nH]cn1)[C@@H](C)O)C(C)C)[C@@H](C)CC)C(=O)N[C@H](C(=O)N[C@H](C(=O)N[C@@](C)(CCCCN)C(=O)NCC(=O)NCC(N)=O)C(C)C)C(C)C)C(=O)O) [SEQ ID NO 75] | 1.7 | 2 | 1.4 | 28 | 28 | 28 | 28
H[Aib]EGS[αMeF]TSDV[αMeS]S[αMeF]LEGEAA[αMeK]E[αMeF]IA[αMeF]K([γGlu-Palmitoyl])V[αMeK]GG-NH2 (N-terminus assumed; SMILES CCCCCCCCCCCCCCCC(=O)N[C@@H](CCC(=O)NCCCC[C@H](NC(=O)[C@](C)(Cc1ccccc1)NC(=O)[C@H](C)NC(=O)[C@@H](NC(=O)[C@](C)(Cc1ccccc1)NC(=O)[C@H](CCC(=O)O)NC(=O)[C@](C)(CCCCN)NC(=O)[C@H](C)NC(=O)[C@H](C)NC(=O)[C@H](CCC(=O)O)NC(=O)CNC(=O)[C@H](CCC(=O)O)NC(=O)[C@H](CC(C)C)NC(=O)[C@](C)(Cc1ccccc1)NC(=O)[C@H](CO)NC(=O)[C@](C)(CO)NC(=O)[C@@H](NC(=O)[C@H](CC(=O)O)NC(=O)[C@H](CO)NC(=O)[C@@H](NC(=O)[C@](C)(Cc1ccccc1)NC(=O)[C@H](CO)NC(=O)CNC(=O)[C@H](CCC(=O)O)NC(=O)C(C)(C)NC(=O)[C@@H](N)Cc1c[nH]cn1)[C@@H](C)O)C(C)C)[C@@H](C)CC)C(=O)N[C@H](C(=O)N[C@@](C)(CCCCN)C(=O)NCC(=O)NCC(N)=O)C(C)C)C(=O)O) [SEQ ID NO 74] | 2.1 | 2.3 | 2 | 28 | 28 | 28 | 28
H[Aib]EGS[αMeF]TSDV[αMeS]S[αMeF]LEGEAA[αMeK]E[αMeF]IA[αMeF]VVK([γGlu-Palmitoyl])GG-NH2 (N-terminus assumed; SMILES CCCCCCCCCCCCCCCC(=O)N[C@@H](CCC(=O)NCCCC[C@H](NC(=O)[C@@H](NC(=O)[C@@H](NC(=O)[C@](C)(Cc1ccccc1)NC(=O)[C@H](C)NC(=O)[C@@H](NC(=O)[C@](C)(Cc1ccccc1)NC(=O)[C@H](CCC(=O)O)NC(=O)[C@](C)(CCCCN)NC(=O)[C@H](C)NC(=O)[C@H](C)NC(=O)[C@H](CCC(=O)O)NC(=O)CNC(=O)[C@H](CCC(=O)O)NC(=O)[C@H](CC(C)C)NC(=O)[C@](C)(Cc1ccccc1)NC(=O)[C@H](CO)NC(=O)[C@](C)(CO)NC(=O)[C@@H](NC(=O)[C@H](CC(=O)O)NC(=O)[C@H](CO)NC(=O)[C@@H](NC(=O)[C@](C)(Cc1ccccc1)NC(=O)[C@H](CO)NC(=O)CNC(=O)[C@H](CCC(=O)O)NC(=O)C(C)(C)NC(=O)[C@@H](N)Cc1c[nH]cn1)[C@@H](C)O)C(C)C)[C@@H](C)CC)C(C)C)C(C)C)C(=O)NCC(=O)NCC(N)=O)C(=O)O) [SEQ ID NO 72] | 49 | 46 | 52 | 28 | 28 | 28 | 28
H[Aib]EGS[αMeF]TSDV[αMeS]S[αMeF]LEGEAA[αMeK]E[αMeF]IA[αMeF]VK([γGlu-Palmitoyl])[αMeK]GG-NH2 (N-terminus assumed; SMILES CCCCCCCCCCCCCCCC(=O)N[C@@H](CCC(=O)NCCCC[C@H](NC(=O)[C@@H](NC(=O)[C@](C)(Cc1ccccc1)NC(=O)[C@H](C)NC(=O)[C@@H](NC(=O)[C@](C)(Cc1ccccc1)NC(=O)[C@H](CCC(=O)O)NC(=O)[C@](C)(CCCCN)NC(=O)[C@H](C)NC(=O)[C@H](C)NC(=O)[C@H](CCC(=O)O)NC(=O)CNC(=O)[C@H](CCC(=O)O)NC(=O)[C@H](CC(C)C)NC(=O)[C@](C)(Cc1ccccc1)NC(=O)[C@H](CO)NC(=O)[C@](C)(CO)NC(=O)[C@@H](NC(=O)[C@H](CC(=O)O)NC(=O)[C@H](CO)NC(=O)[C@@H](NC(=O)[C@](C)(Cc1ccccc1)NC(=O)[C@H](CO)NC(=O)CNC(=O)[C@H](CCC(=O)O)NC(=O)C(C)(C)NC(=O)[C@@H](N)Cc1c[nH]cn1)[C@@H](C)O)C(C)C)[C@@H](C)CC)C(C)C)C(=O)N[C@@](C)(CCCCN)C(=O)NCC(=O)NCC(N)=O)C(=O)O) [SEQ ID NO 73] | 146 | 130 | 160 | 28 | 28 | 28 | 28
